Patent US20190270811A1 (UCB, published 2019)
One block for each binder: values may come before it.

Tests used:
[1] = molecular target: T1, Human FcRn extracellular domain (non-covalent complex of human FcRn alpha chain extracellular domain and … (human, UniProt P55899 24-297; P61769 21-119); experiment: SPR Biacore T200, IgG4P captured by anti-human Fc, hFcRn ECD/b2M as analyte, pH 7.4, run 3
T1 construct: also called hFcRn; hFcRn alpha chain ECD region with human beta 2 microglobulin
Experimental: (§1) Biomolecular interaction analysis using surface plasmon resonance technology (SPR) was performed on a Biacore T200 system (GE Healthcare) and binding to human FcRn extracellular domain determined.
(§2) The surface was regenerated by 2×60 s 50 mM HCl at 10 μl/min for the running buffer at pH6 or by 60 s 40 mM HCl and 30 s 10 mM NaOH for the running buffer at pH7.4. The data was analysed using T200 evaluation software (version 1.0) using the 1:1 binding model with local Rmax.

[2] = molecular target: T1, Human FcRn extracellular domain …; experiment: SPR Biacore T200, IgG4P captured by anti-human Fc, hFcRn ECD/b2M as analyte, pH 7.4, mean of 3
Experimental: as §1, §2

[3] = molecular target: T2, Human FcRn expressed on MDCK II clone 15 cells (human FcRn and human B2M) (human, UniProt P55899 24-365); experiment: quantitative flow cytometry, AlexaFluor 488-labelled antibody on MDCK II clone 15 cells, pH 6.0, mean of n=3
T2 construct: whole, on cells
Experimental: (§3) Specific binding of antibody to FcRn across a range of antibody concentrations was used to determine KD.
(§4) The final antibody concentrations ranged from 400 nM to 0.003 nM. The cells were washed in ice cold Facs buffer then analysed by flow cytometry using a Guava flow cytometer (Millipore, UK). Titration data sets were also produced for isotype control antibodies for each antibody format to determine non-specific binding. The number of moles of bound antibody was calculated using interpolated values from a standard curve generated from beads comprised of differing amounts of fluorescent dye. Geometric mean fluorescence values were determined in the flow cytometric analyses of cells and beads. Non-specific binding was subtracted from the anti-FcRn antibody values and the specific binding curve generated was analysed by non-linear regression using a one-site binding equation (Graphpad Prism®) to determine the KD. Data is representative of 3 experiments.

[4] = molecular target: T1, Human FcRn extracellular domain …; experiment: SPR Biacore T200, IgG4P captured by anti-human Fc, hFcRn ECD/b2M as analyte, pH 6.0, mean of 3
Experimental: as §1, §2

[5] = molecular target: T2, Human FcRn expressed on MDCK II clone …; experiment: cell-based or functional assay
[6] = molecular target: T1, Human FcRn extracellular domain …; experiment: SPR Biacore T200, IgG4P captured by anti-human Fc, hFcRn ECD/b2M as analyte, pH 6.0, run 2
Experimental: as §1, §2

[7] = molecular target: T1, Human FcRn extracellular domain …; experiment: SPR Biacore T200, IgG4P captured by anti-human Fc, hFcRn ECD/b2M as analyte, pH 7.4, run 1
Experimental: as §1, §2

[8] = molecular target: T3, Cynomolgus macaque FcRn expressed on MDCK II clone 40 cells (cynomolgus macaque FcRn and B2M) (cynomolgus macaque, UniProt Q8SPV9 24-365; Q8SPW0 21-119); experiment: quantitative flow cytometry on MDCK II clone 40 cells, pH 6.0, mean of n=3
T3 construct: whole, on cells; also called Cyno FcRn
T3 sequence (Q8SPV9 24-365, chain 1 of 2): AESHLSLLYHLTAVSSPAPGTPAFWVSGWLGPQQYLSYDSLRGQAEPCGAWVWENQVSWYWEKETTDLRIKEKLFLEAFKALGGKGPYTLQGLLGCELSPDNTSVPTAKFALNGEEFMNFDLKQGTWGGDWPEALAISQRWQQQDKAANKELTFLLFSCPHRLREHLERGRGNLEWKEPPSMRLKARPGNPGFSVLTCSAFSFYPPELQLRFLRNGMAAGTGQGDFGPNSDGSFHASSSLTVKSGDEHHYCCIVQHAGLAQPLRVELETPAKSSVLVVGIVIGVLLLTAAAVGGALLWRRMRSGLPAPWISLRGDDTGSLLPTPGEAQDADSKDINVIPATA
T3 sequence (Q8SPW0 21-119, chain 2 of 2): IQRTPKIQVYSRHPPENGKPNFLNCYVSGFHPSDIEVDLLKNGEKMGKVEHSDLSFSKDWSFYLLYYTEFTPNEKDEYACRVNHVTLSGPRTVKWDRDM
Text: as §3

[9] = molecular target: T3, Cynomolgus macaque FcRn expressed on …; experiment: quantitative flow cytometry on MDCK II clone 40 cells, pH 7.4, mean of n=3
[10] = molecular target: T1, Human FcRn extracellular domain …; experiment: SPR Biacore T200, IgG4P captured by anti-human Fc, hFcRn ECD/b2M as analyte, pH 6.0, run 3
Experimental: as §1, §2

[11] = molecular target: T1, Human FcRn extracellular domain …; experiment: SPR Biacore T200, IgG4P captured by anti-human Fc, hFcRn ECD/b2M as analyte, pH 7.4, run 2
Experimental: as §1, §2

[12] = molecular target: T2, Human FcRn expressed on MDCK II clone …; experiment: quantitative flow cytometry, AlexaFluor 488-labelled antibody on MDCK II clone 15 cells, pH 7.4, mean of n=3
Experimental: as §3, §4

[13] = molecular target: T1, Human FcRn extracellular domain …; experiment: SPR Biacore T200, IgG4P captured by anti-human Fc, hFcRn ECD/b2M as analyte, pH 6.0, run 1
Experimental: as §1, §2

Kd [1]: 0.0293 nM
koff [1]: 2.82e-05 s⁻¹
kon [1]: 962000 M⁻¹ s⁻¹
Kd [2]: 0.0294 nM
koff [2]: 2.84e-05 s⁻¹
kon [2]: 967000 M⁻¹ s⁻¹
Kd [3]: 0.22 nM
Kd [4]: 0.127 nM
koff [4]: 0.000141 s⁻¹
kon [4]: 1.1e+06 M⁻¹ s⁻¹
IgG recycling in MDCK II clone 15 cells, EC50 [5]: 0.31 nM
apical to basolateral transcytosis of human IgG in MDCK II clone 15 cells, EC50 [5]: 2.4 nM
Kd [6]: 0.126 nM
koff [6]: 0.000139 s⁻¹
kon [6]: 1.1e+06 M⁻¹ s⁻¹
Kd [7]: 0.0257 nM
koff [7]: 2.51e-05 s⁻¹
kon [7]: 975000 M⁻¹ s⁻¹
Kd [8]: 0.43 nM
Kd [9]: 0.3 nM
Kd [10]: 0.127 nM
koff [10]: 0.00014 s⁻¹
kon [10]: 1.11e+06 M⁻¹ s⁻¹
Kd [11]: 0.0332 nM
koff [11]: 3.19e-05 s⁻¹
kon [11]: 962000 M⁻¹ s⁻¹
Kd [12]: 0.2 nM
Kd [13]: 0.129 nM
koff [13]: 0.000143 s⁻¹
kon [13]: 1.1e+06 M⁻¹ s⁻¹
B1: CA170_1638.g49 IgG4P (antibody)
heavy: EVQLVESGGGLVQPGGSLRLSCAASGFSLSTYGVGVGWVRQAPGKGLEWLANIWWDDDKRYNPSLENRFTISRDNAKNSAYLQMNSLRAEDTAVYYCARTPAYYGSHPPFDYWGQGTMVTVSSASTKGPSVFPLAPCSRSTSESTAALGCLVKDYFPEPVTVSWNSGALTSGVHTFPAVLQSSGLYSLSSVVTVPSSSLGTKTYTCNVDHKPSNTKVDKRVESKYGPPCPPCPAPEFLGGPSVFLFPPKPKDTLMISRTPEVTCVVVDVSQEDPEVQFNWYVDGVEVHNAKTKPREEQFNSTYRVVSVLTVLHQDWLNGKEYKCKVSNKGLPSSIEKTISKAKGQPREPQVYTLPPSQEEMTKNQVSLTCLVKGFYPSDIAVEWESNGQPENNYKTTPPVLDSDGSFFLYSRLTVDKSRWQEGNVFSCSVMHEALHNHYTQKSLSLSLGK
light: DIQMTQSPSSLSASVGDRVTITCRTSEDIYTNLAWYQQKPGKVPKLLIYVAKTLQEGVPSRFSGSGSGTHYTLTISSLQPEDVATYYCLQGFKFPWTFGGGTKVEIKRTVAAPSVFIFPPSDEQLKSGTASVVCLLNNFYPREAKVQWKVDNALQSGNSQESVTEQDSKDSTYSLSSTLTLSKADYEKHKVYACEVTHQGLSSPVTKSFNRGEC
notes: In the flow cytometry assays the antibody was labelled with AlexaFluor 488; also called 1638.49 g IgG4

apical to basolateral transcytosis of human IgG in MDCK II clone 15 cells, EC50 [5]: 0.42 nM
B2: CA170_1638.g49 FabFv (bispecific antibody)
heavy: EVQLVESGGGLVQPGGSLRLSCAASGFSLSTYGVGVGWVRQAPGKGLEWLANIWWDDDKRYNPSLENRFTISRDNAKNSAYLQMNSLRAEDTAVYYCARTPAYYGSHPPFDYWGQGTMVTVSSASTKGPSVFPLAPSSKSTSGGTAALGCLVKDYFPEPVTVSWNSGALTSGVHTFPAVLQSSGLYSLSSVVTVPSSSLGTQTYICNVNHKPSNTKVDKKVEPKSCSGGGGSGGGGTGGGGSEVQLLESGGGLVQPGGSLRLSCAVSGIDLSNYAINWVRQAPGKCLEWIGIIWASGTTFYATWAKGRFTISRDNSKNTVYLQMNSLRAEDTAVYYCARTVPGYSTAPYFDLWGQGTLVTVSS
light: DIQMTQSPSSLSASVGDRVTITCRTSEDIYTNLAWYQQKPGKVPKLLIYVAKTLQEGVPSRFSGSGSGTHYTLTISSLQPEDVATYYCLQGFKFPWTFGGGTKVEIKRTVAAPSVFIFPPSDEQLKSGTASVVCLLNNFYPREAKVQWKVDNALQSGNSQESVTEQDSKDSTYSLSSTLTLSKADYEKHKVYACEVTHQGLSSPVTKSFNRGECGGGGSGGGGSGGGGSDIQMTQSPSSVSASVGDRVTITCQSSPSVWSNFLSWYQQKPGKAPKLLIYEASKLTSGVPSRFSGSGSGTDFTLTISSLQPEDFATYYCGGGYSSISDTTFGCGTKVEIKRT
